Results as given in paper PMC2824758.

Target: CD81 large external loop (LEL) (UniProt P60033)
Sequence of UniProt P60033 (P60033 113-201): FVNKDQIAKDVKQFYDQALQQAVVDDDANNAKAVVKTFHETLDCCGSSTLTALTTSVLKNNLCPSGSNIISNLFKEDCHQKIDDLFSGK

Substance: HCV E2 ectodomain (E2e), isolate UKN2b_2.8, genotype 2b (domain or fragment)
- inhibition of infection of Huh-7.5 cells by HCVcc (infected foci, HCV core immunofluorescence), cells preincubated with 0.05 to 2 µM HCV E2e; 10% inhibition at 0.05 µM: 90%
